Experimental data from patent publication US20220251202A1 (ASHER BIOTHERAPEUTICS, published 2022).

Molecular target: T1, mouse CD8 (on mouse CD8+ T cells) (mouse, UniProt P01731 28-247; P10300 22-213)
T1 construct: whole, on cells
Assay: flow cytometry on mouse splenocytes, anti-hFc MFI
Procedure: Fresh splenocytes were incubated with the indicated antibodies for 2 hours at 4° C. The cells were then stained with antibodies against CD3, CD4, CD8 and anti-hFc. anti-hFc was used to measure the binding of CD8-IL2 fusion containing hFc. Cells were washed and analyzed by flow cytometry.
The binding affinity of anti-mouse CD8 antibodies was determined through flow cytometry analysis. […] The xCD8ab2.1 clone is derived from xCD8ab2 by introduction of mutations N95A (VH) and D92A (VK). After incubation with the anti-mouse CD8 antibody, the cells were then stained with antibodies against CD3, CD4, CD8 and anti-hFc (HP6017, Biolegend), the latter of which was used to measure the binding of CD8-IL2 fusion containing hFc. Stained cells were washed and analyzed by flow cytometry and mean fluorescence intensity (MFI) of staining with anti-hFc was used to denote binding.

Row | Binder | binding result
1 | xmCD8ab2 (published clone YTS156.7.7) (antibody, V domains shown, Carries a human Fc; also called xCD8ab2) VH: EVKLQESGPSLVQPSQTLSLTCSVSGFSLISDSVHWVRQPPGKGLEWMGGIWADGSTDYNSALKSRLSISRDTSKSQGFLKMNSLQTDDTAIYFCTSNRESYYFDYWGQGTMVTVSS VL: DIQMTQSPASLSASLGDKVTITCQASQNIDKYIAWYQQKPGKAPRQLIHYTSTLVSGTPSRFSGSGSGRDYSFSISSVESEDIASYYCLQYDTLYTFGAGTKLELK | binds
2 | xmCD8ab2.1 (antibody, V domains shown, Carries a human Fc; also called xCD8ab2.1) VH: EVKLQESGPSLVQPSQTLSLTCSVSGFSLISDSVHWVRQPPGKGLEWMGGIWADGSTDYNSALKSRLSISRDTSKSQGFLKMNSLQTDDTAIYFCTSARESYYFDYWGQGTMVTVSS VL: DIQMTQSPASLSASLGDKVTITCQASQNIDKYIAWYQQKPGKAPRQLIHYTSTLVSGTPSRFSGSGSGRDYSFSISSVESEDIASYYCLQYATLYTFGAGTKLELK | binds
